{"source": "paper PMC12065894", "about": "(Nature Communications, 2025)", "molecular_target": "the molecule itself", "assay": "crystal structure; contact between molecules of the crystal lattice: the cleaved zymogen activation motif of one protease molecule lies in the substrate binding cleft of a neighbouring one; crystals grown at 18 °C", "data": [{"protein": "dasTMPRSS11D (active, autocleaved TMPRSS11D with DDDDK zymogen activation motif) (enzyme, also called active dasTMPRSS11D; Human Airway Trypsin-like protease) chain 1: ANWLINECGAGPDLITDDDDK chain 2: not shown", "values": [{"measurement": "binding result", "value": "binds"}]}]}
